{
  "source": "patent US20170268065",
  "proteins": {"B1": {"name": "V5-tagged ERK1^Y148H (protein)", "chain": "MAAAAAQGGGGGEPRRTEGVGPGVPGEVEMVKGQPFDVGPRYTQLQYIGEGAYGMVSSAYDHVRKTRVAIKKISPFEHQTYCQRTLREIQILLRFRHENVIGIRDILRASTLEAMRDVYIVQDLMETDLYKLLKSQQLSNDHICYFLHQILRGLKYIHSANVLHRDLKPSNLLINTTCDLKICDFGLARIADPEHDHTGFLTEYVATRWYRAPEIMLNSKGYTKSIDIWSVGCILAEMLSNRPIFPGKHYLDQLNHILGILGSPSQEDLNCIINMKARNYLQSLPSKTKVAWAKLFPKSDSKALDLLDRMLTFNPNKRITVEEALAHPYLEQYYDPTDEPVAEEPFTFAMELDDLPKERLKELIFQETARFQPGVLEAP"}},
  "biological_target": "T1, ELK-1 fusion protein (Cell Signaling), P19419",
  "T1 chain": "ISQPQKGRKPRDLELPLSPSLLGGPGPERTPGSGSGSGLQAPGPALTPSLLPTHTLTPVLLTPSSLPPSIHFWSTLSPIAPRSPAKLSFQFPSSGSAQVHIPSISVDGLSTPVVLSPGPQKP",
  "data": [
    {"protein": "B1", "values": [
      {"measurement": "ERK kinase activity (ELK-1 peptide phosphorylation, IP kinase assay after trametinib exposure)", "result": "diminished residual kinase activity in the setting of trametinib exposure with the common docking domain mutants compared to other alleles"}
    ]}
  ]
}
